PMC2045677, “Thyroid hormone receptor orthologues from invertebrate species with emphasis on Schistosoma mansoni”

T1: SmTRα (Schistosoma mansoni, UniProt Q2TUU7 1-1115)
T1 sequence: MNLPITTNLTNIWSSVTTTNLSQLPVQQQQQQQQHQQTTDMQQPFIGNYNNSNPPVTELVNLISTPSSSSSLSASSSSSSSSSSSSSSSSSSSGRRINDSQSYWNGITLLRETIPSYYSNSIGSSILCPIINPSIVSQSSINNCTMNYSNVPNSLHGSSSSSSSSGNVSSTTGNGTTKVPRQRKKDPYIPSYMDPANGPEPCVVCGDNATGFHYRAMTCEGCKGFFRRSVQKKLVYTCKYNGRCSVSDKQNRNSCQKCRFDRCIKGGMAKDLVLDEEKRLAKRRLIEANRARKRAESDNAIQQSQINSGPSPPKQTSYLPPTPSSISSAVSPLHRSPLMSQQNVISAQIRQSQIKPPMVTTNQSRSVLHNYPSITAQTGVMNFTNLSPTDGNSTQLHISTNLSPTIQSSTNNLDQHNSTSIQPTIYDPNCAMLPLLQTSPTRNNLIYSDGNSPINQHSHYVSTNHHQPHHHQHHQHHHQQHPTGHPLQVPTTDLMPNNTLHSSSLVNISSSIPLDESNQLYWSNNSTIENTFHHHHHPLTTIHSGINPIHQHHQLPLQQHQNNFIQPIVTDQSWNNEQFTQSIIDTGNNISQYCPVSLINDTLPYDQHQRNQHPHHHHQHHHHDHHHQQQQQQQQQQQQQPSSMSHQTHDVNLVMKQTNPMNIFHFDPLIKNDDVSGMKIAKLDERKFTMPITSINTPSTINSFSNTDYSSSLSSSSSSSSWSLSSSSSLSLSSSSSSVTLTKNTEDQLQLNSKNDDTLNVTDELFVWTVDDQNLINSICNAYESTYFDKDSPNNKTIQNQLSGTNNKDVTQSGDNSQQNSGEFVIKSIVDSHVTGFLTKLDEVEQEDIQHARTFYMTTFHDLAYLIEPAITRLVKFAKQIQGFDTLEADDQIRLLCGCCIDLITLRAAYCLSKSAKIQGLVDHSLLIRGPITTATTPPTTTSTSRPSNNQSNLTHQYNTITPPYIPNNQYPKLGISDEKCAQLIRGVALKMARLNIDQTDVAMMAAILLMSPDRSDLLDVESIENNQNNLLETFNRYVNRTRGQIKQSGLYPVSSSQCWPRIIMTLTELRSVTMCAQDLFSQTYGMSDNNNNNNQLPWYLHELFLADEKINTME


What was measured:
SmTRα = target: T1, SmTRα; experiment: EMSA; monomer or homodimer; EMSA on ice 40 min, 15 µl with 3 µl 5x buffer (5x: 20% glycerol, 5 mM MgCl2, 2.5 mM EDTA, 2.5 mM DTT, 250 mM NaCl, 50 mM Tris-HCl pH 7.5, 0.25 mg/ml poly(dI-dC)); 6% native gel, 1x TBE, 4°C; settings: protein: ivt; tags: none stated (pCITE-4a); label: 32P; blunt
SmTRα(Gln182-Ala288) = SmTRα(Gln182-Ala288) (Schistosoma mansoni, UniProt Q2TUU7 182-288); experiment: EMSA; monomer or homodimer; cold self competes; EMSA on ice 40 min, 15 µl with 3 µl 5x buffer (5x: 20% glycerol, 5 mM MgCl2, 2.5 mM EDTA, 2.5 mM DTT, 250 mM NaCl, 50 mM Tris-HCl pH 7.5, 0.25 mg/ml poly(dI-dC)); 6% native gel, 1x TBE, 4°C; settings: protein: ivt; tags: none stated (pCITE-4a); label: 32P; blunt

Binder | binding result (SmTRα) | binding result (SmTRα(Gln182-Ala288))
half-site (dsDNA) DNA 1: GTACCGTAAGGTCACTCGCGT DNA 2: ACGCGAGTGACCTTACGGTAC | binds | binds
DR5 (dsDNA) DNA 1: CCGTAAGGTCACCAGGAGGTCACTCG DNA 2: CGAGTGACCTCCTGGTGACCTTACGG | binds | binds
Pal0 (dsDNA) DNA 1: CGCAAGGTCATGACCTCG DNA 2: CGAGGTCATGACCTTGCG | binds | binds
DR2 (dsDNA) DNA 1: CCGTAAGGTCACAAGGTCACTCG DNA 2: CGAGTGACCTTGTGACCTTACGG | binds | binds
DR4 (dsDNA) DNA 1: CCGTAAGGTCACAGGAGGTCACTCG DNA 2: CGAGTGACCTCCTGTGACCTTACGG | binds | binds
DR1 (dsDNA) DNA 1: CCGTAAGGTCACAGGTCACTCG DNA 2: CGAGTGACCTGTGACCTTACGG | binds | binds
DR0 (dsDNA) DNA 1: CCGTAAGGTCAAGGTCACTCG DNA 2: CGAGTGACCTTGACCTTACGG | binds | binds
DR3 (dsDNA) DNA 1: CCGTAAGGTCACAGAGGTCACTCG DNA 2: CGAGTGACCTCTGTGACCTTACGG | binds | binds
